B1: full-length TCR (ba1) (TCR)
chain: MLSLLLLLLGLGSVFSAVISQKPSRDICQRGTSLTIQCQVDSQVTMMFWYRQQPGQSLTLIATANQGSEATYESGFVIDKFPISRPNLTFSTLTVSNMSPEDSSIYLCSVDGQGNTGELFFGEGSRLTVLEDLKNVFPPEVAVFEPSEAEISHTQKATLVCLATGFYPDHVELSWWVNGKEVHSGVSTDPQPLKEQPALNDSRYCLSSRLRVSATFWQNPRNHFRCQVQFYGLSENDEWTQDRAKPVTQIVSAEAWGRADCGFTSESYQQGVLSATILYEILLGKATLYAVLVSALVLMAMVKRKDSRGSGSGEGRGSLLTCGDVEENPGPMACPGFLWALVISTCLEFSMAQTVTQSQPEMSVQEAETVTLSCTYDTSESDYYLFWYKQPPSRQMILVIRQEAYKQQNATENRFSVNFQKAAKSFSLKISDSQLGDAAMYFCAYWSNNNARLMFGDGTQLVVKPNIQNPDPAVYQLRDSKSSDKSVCLFTDFDSQTNVSQSKDSDVYITDKTVLDMRSMDFKSNSAVAWSNKSDFACANAFNNSIIPEDTFFPSPESSCDVKLVEKSFETDTNLNFQNLSVIGFRILLLKVAGFNLLMTLRLWSS
B2: modified TCR ba7 (TCR)
TCR alpha: SVCLFTDFDSQTNVSQSKDSDVYITDKTVLDMRSMDFKSNSAVAWSNKSDFACANAFNNSIIPEDTFFPSPESSCDVKLVEKSFETDTNLNFQNLSVIGFRILLLKVAGFNLLMTLRLWSS
TCR beta: EDLKNVFPPEVAVFEPSEAEISHTQKATLVCLATGFYPDHVELSWWVNGKEVHSGVSTDPQPLKEQPALNDSRYCLSSRLRVSATFWQNPRNHFRCQVQFYGLSENDEWTQDRAKPVTQIVSAEAWGRADCGFTSESYQQGVLSATILYEILLGKATLYAVLVSALVLMAMVKRKDSRG
B3: modified TCR ba8 (TCR)
TCR alpha: DVYITDKTVLDMRSMDFKSNSAVAWSNKSDFACANAFNNSIIPEDTFFPSPESSCDVKLVEKSFETDTNLNFQNLSVIGFRILLLKVAGFNLLMTLRLWSS
TCR beta: B2 TCR beta
B4: modified TCR ba18 (TCR)
TCR alpha: IPEDTFFPSPESSCDVKLVEKSFETDTNLNFQNLSVIGFRILLLKVAGFNLLMTLRLWSS
TCR beta: AKPVTQIVSAEAWGRADCGFTSESYQQGVLSATILYEILLGKATLYAVLVSALVLMAMVKRKDSRG
B5: modified TCR ba6 (TCR)
TCR alpha: NIQNPDPAVYQLRDSKSSDKSVCLFTDFDSQTNVSQSKDSDVYITDKTVLDMRSMDFKSNSAVAWSNKSDFACANAFNNSIIPEDTFFPSPESSCDVKLVEKSFETDTNLNFQNLSVIGFRILLLKVAGFNLLMTLRLWSS
TCR beta: B4 TCR beta
B6: modified TCR ba3 (TCR)
TCR alpha: B5 TCR alpha
TCR beta: ATLVCLATGFYPDHVELSWWVNGKEVHSGVSTDPQPLKEQPALNDSRYCLSSRLRVSATFWQNPRNHFRCQVQFYGLSENDEWTQDRAKPVTQIVSAEAWGRADCGFTSESYQQGVLSATILYEILLGKATLYAVLVSALVLMAMVKRKDSRG
B7: modified TCR ba5 (TCR)
TCR alpha: B5 TCR alpha
TCR beta: FRCQVQFYGLSENDEWTQDRAKPVTQIVSAEAWGRADCGFTSESYQQGVLSATILYEILLGKATLYAVLVSALVLMAMVKRKDSRG

What follows are binders tested against CD3 subunits (CD3E, CD3G, CD3D, CD3Z) (human, UniProt P07766 23-207; P09693 23-182; P04234 22-171; P20963 22-164) (assay: cell-based or functional assay).
Chain of CD3 subunits (CD3E, CD3G, CD3D, CD3Z) (P07766 23-207, chain 1 of 4): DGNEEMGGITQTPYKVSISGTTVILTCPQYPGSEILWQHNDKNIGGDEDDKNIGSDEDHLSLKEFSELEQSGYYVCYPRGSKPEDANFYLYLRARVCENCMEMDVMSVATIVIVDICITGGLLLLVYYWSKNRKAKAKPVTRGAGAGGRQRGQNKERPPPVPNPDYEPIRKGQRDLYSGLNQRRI
Chain of CD3 subunits (CD3E, CD3G, CD3D, CD3Z) (P09693 23-182, chain 2 of 4): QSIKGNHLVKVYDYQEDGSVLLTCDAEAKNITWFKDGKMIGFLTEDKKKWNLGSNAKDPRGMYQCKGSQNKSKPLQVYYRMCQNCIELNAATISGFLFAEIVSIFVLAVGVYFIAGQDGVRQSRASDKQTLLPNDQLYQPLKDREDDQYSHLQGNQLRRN
Chain of CD3 subunits (CD3E, CD3G, CD3D, CD3Z) (P04234 22-171, chain 3 of 4): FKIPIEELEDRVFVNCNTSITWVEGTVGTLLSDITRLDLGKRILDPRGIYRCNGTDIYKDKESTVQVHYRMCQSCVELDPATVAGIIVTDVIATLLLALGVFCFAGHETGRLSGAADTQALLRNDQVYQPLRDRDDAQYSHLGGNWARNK
Chain of CD3 subunits (CD3E, CD3G, CD3D, CD3Z) (P20963 22-164, chain 4 of 4): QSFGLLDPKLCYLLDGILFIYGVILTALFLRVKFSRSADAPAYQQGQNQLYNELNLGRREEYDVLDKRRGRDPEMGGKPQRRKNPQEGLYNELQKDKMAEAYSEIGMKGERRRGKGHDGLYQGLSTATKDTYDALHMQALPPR

expression of CD3 (CD3-positive proportion), cells differentiated from iPS-derived HPCs (FF-WJs524), Day 21 [%]	Binder
99.8	B1

These binders were tested against CD3E (human, UniProt P07766 23-207) (assay: cell-based or functional assay).
Chain of CD3E (P07766 23-207): as the sequence (P07766 23-207, chain 1 of 4) above

CD3E-positive proportion [%] (Avg, n = 2), CD3-stably expressing 293T cells	Binder
88.7	B1
88.6	B2
90.3	B3
89.5	B4
47.6	B5
82.3	B6
48.4	B7
